Tested on: T1, MBP-SphR (Pseudomonas aeruginosa (strain PAO1?)), ORF:ae0b4f1c
T1 sequence: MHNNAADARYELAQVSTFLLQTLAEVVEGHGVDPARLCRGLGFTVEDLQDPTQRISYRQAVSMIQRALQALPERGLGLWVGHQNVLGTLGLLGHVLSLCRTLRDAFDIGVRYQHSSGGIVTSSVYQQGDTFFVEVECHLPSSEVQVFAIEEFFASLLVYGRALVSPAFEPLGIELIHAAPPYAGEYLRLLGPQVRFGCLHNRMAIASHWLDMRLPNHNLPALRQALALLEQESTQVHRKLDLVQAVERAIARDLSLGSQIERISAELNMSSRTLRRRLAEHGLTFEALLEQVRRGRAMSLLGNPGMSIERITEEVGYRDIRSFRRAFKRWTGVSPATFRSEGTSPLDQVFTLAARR
Experiment: competition
Conditions: 10 mM Tris-HCl pH 7.5, 50 mM KCl, 1 mM DTT, 1 mM EDTA, 3 mM MgCl2, 50 ug/ml BSA, 4% glycerol, 0.05% NP-40, 50 ng/ul poly(dI-dC), 30 C, 30 min

“GGTTGCCACTGTAGTGCCAGGGTGGTGGAGTCGAGGGGGGCGTAGCGGACAGGAAGGGGGTGAGCGCCGGCCATCCTGCATGGACGGCAAGGCAGGCGGGTAAAAAAAGGCCGCCTGCGT (double strand) [cerN promoter -200 to -81, unlabeled competitor]” was tested, and the binding was “binds”.

From publication PMC5150637
